These results are taken from article PMC7337937, “CryoEM structures of human CMG–ATPγS–DNA and CMG–AND-1 complexes” (Nucleic Acids Research, 2020).

By stoichiometry N is commonly meant a count of units in the complex or per binding partner.

Data set [1] concerns the molecule itself. Nature of the data set: cryo-EM structure; CMGA: AND-1 co-expressed with the CMG subunits in HEK293-F, co-purified; 1 mM ATPγS added, glutaraldehyde cross-linked before grid preparation; 6.77 Å map, CMG structure and AND-1 trimer crystal structure docked as rigid bodies.
The target in data set [2] is human CMG helicase (Cdc45-MCM2-7-GINS) (Homo sapiens, UniProt O75419;P49736;P25205-2;P33991;P33992;Q14566;P33993;Q14691;Q9Y248;Q9BRX5;Q9BRT9 …). Nature of the data set: cryo-EM structure (3.29 A); 100 uM ATPgS, 5 mM Mg acetate; ATPgS-Mg2+ at MCM6, MCM4, MCM7; ADP at MCM2, MCM3; MCM5 apo; Buffer S: 25 mM HEPES pH 7.5, 50 mM KCl, 5 mM Mg acetate, 2 mM DTT, with 100 uM ATPgS and 4 uM fork DNA, loaded on StrepTrap-bound CMG; eluted with 15 mM desthiobiotin; binding temperature not stated. The following applies: protein: recombinant; tags: MCM4 N-terminal His8-TEV; Psf2 C-terminal TEV-2xStrepII; copies: 1;1;1;1;1;1;1;1;1;1;1; fork: 40 bp duplex 1:1-40 2:31-70; 30 nt unpaired tails, 3' poly-dT (strand 1) and 5' GC-rich (strand 2).

B1: human AND-1, recombinant full length (natural protein, UniProt O75717 1-1129, looked up)
chain: MPATRKPMRYGHTEGHTEVCFDDSGSFIVTCGSDGDVRIWEDLDDDDPKFINVGEKAYSCALKSGKLVTAVSNNTIQVHTFPEGVPDGILTRFTTNANHVVFNGDGTKIAAGSSDFLVKIVDVMDSSQQKTFRGHDAPVLSLSFDPKDIFLASASCDGSVRVWQISDQTCAISWPLLQKCNDVINAKSICRLAWQPKSGKLLAIPVEKSVKLYRRESWSHQFDLSDNFISQTLNIVTWSPCGQYLAAGSINGLIIVWNVETKDCMERVKHEKGYAICGLAWHPTCGRISYTDAEGNLGLLENVCDPSGKTSSSKVSSRVEKDYNDLFDGDDMSNAGDFLNDNAVEIPSFSKGIINDDEDDEDLMMASGRPRQRSHILEDDENSVDISMLKTGSSLLKEEEEDGQEGSIHNLPLVTSQRPFYDGPMPTPRQKPFQSGSTPLHLTHRFMVWNSIGIIRCYNDEQDNAIDVEFHDTSIHHATHLSNTLNYTIADLSHEAILLACESTDELASKLHCLHFSSWDSSKEWIIDLPQNEDIEAICLGQGWAAAATSALLLRLFTIGGVQKEVFSLAGPVVSMAGHGEQLFIVYHRGTGFDGDQCLGVQLLELGKKKKQILHGDPLPLTRKSYLAWIGFSAEGTPCYVDSEGIVRMLNRGLGNTWTPICNTREHCKGKSDHYWVVGIHENPQQLRCIPCKGSRFPPTLPRPAVAILSFKLPYCQIATEKGQMEEQFWRSVIFHNHLDYLAKNGYEYEESTKNQATKEQQELLMKMLALSCKLEREFRCVELADLMTQNAVNLAIKYASRSRKLILAQKLSELAVEKAAELTATQVEEEEEEEDFRKKLNAGYSNTATEWSQPRFRNQVEEDAEDSGEADDEEKPEIHKPGQNSFSKSTNSSDVSAKSGAVTFSSQGRVNPFKVSASSKEPAMSMNSARSTNILDNMGKSSKKSTALSRTTNNEKSPIIKPLIPKPKPKQASAASYFQKRNSQTNKTEEVKEENLKNVLSETPAICPPQNTENQRPKTGFQMWLEENRSNILSDNPDFSDEADIIKEGMIRFRVLSTEERKVWANKAKGETASEGTEAKKRKRVVDESDETENQEEKAKENLNLSKKQKPLDFSTNQKLSAFAFKQE
notes: AND-1, human, full-length ORF from IMAGE cDNA clone 6514641; The tag is 2xStrepII-TEV; no TEV cleavage step is described; Only the SepB domain is visible in the map; also called AND-1 trimer; source: HEK293-F, transient co-transfection with the CMG subunits, co-purified as CMGA
On to B1, for which the “stoichiometry N” value in data set [1] came to 3.

B2: fork DNA (70T/70GC) (mixed)
DNA 1: CGTTTTACAACGTCGTGACTGGGCACTTGATCGGCCAACCTTTTTTTTTTTTTTTTTTTTTTTTTTTTTT
DNA 2: CAGGCAGGCAGGCAGGCAGGCAGGCAGGCAGGTTGGCCGATCAAGTGCCCAGTCACGACGTTGTAAAACG
With B2, in data set [2], the binding result is recorded as “binds”.
